Assay results reported in publication PMC2734569, “Functional mapping of the fission yeast DNA polymerase δ B-subunit Cdc1 by site-directed and random pentapeptide insertion mutagenesis” (BMC Molecular Biology, 2009).

Columns and labels:
Assay in all cases: two-hybrid; LexA-Cdc1 bait (pBTM116 or pBTM116BN) with Gal4 activation domain-Cdc27 prey (pGAD2F-Cdc27) in S. cerevisiae CTY10-5d; ONPG liquid culture beta-galactosidase assay, mean of triplicates, as percent of wild-type Cdc1
Details in all cases: partners not purified
Cdc1-E9 = target: T1, Cdc1-E9 (Schizosaccharomyces pombe, UniProt P87324 1-462, Tyr-GlyGlyTyrProTyr-Gly)
T1 construct: Cdc1, S. pombe, with a pentapeptide inserted after residue 124; source: yeast two-hybrid fusion, in S. cerevisiae CTY10-5d
T1 sequence (looked up): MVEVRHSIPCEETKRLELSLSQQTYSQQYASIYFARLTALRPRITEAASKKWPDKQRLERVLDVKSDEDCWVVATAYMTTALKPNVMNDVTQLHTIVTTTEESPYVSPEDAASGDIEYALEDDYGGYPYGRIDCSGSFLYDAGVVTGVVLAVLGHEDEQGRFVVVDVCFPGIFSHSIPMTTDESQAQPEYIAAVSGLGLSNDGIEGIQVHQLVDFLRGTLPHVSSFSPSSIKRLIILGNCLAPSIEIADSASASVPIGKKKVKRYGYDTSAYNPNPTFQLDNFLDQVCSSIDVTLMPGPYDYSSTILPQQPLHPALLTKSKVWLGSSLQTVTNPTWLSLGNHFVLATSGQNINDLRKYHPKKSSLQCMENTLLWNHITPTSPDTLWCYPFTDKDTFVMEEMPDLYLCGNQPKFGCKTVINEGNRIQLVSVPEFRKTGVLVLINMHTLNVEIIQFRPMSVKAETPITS

Cdc1-A4 = target: T2, Cdc1-A4 (Schizosaccharomyces pombe, UniProt P87324 1-462, Pro303Ala)
T2 construct: Cdc1, S. pombe, point mutant; source: yeast two-hybrid fusion, in S. cerevisiae CTY10-5d
T2 sequence (looked up): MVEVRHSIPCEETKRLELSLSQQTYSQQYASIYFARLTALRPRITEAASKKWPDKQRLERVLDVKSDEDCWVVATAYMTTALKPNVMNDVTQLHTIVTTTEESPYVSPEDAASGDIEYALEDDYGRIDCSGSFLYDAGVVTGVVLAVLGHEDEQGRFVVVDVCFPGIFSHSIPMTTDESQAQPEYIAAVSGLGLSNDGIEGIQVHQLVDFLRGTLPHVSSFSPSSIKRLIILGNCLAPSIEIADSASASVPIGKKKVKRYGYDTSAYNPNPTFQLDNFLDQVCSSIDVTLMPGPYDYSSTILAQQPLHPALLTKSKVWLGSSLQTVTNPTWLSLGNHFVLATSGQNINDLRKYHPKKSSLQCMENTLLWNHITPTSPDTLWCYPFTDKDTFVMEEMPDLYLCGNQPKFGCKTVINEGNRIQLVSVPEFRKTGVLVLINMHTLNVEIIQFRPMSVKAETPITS

Cdc1-J22 = target: T3, Cdc1-J22 (Schizosaccharomyces pombe, UniProt P87324 1-462, Arg-GlyValProLeuArg-Gly)
T3 construct: Cdc1, S. pombe, with a pentapeptide inserted after residue 212; source: yeast two-hybrid fusion, in S. cerevisiae CTY10-5d
T3 sequence (looked up): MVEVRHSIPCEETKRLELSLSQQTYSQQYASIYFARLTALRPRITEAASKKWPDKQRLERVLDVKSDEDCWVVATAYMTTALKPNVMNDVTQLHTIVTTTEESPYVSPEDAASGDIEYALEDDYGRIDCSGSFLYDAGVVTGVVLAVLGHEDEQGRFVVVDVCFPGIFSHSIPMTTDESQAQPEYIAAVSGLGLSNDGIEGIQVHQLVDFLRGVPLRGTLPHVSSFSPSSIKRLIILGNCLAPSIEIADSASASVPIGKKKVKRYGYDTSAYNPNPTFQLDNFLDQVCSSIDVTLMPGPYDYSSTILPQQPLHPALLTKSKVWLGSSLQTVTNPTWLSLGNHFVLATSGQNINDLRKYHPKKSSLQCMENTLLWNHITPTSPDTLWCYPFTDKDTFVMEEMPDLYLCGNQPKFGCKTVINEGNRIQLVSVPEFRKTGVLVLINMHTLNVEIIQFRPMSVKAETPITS

Cdc1-J3 = target: T4, Cdc1-J3 (Schizosaccharomyces pombe, UniProt P87324 1-462, Leu-GlyValProLeuLeu-Asp)
T4 construct: Cdc1, S. pombe, with a pentapeptide inserted after residue 62; also called E3; E8; source: yeast two-hybrid fusion, in S. cerevisiae CTY10-5d
T4 sequence (looked up): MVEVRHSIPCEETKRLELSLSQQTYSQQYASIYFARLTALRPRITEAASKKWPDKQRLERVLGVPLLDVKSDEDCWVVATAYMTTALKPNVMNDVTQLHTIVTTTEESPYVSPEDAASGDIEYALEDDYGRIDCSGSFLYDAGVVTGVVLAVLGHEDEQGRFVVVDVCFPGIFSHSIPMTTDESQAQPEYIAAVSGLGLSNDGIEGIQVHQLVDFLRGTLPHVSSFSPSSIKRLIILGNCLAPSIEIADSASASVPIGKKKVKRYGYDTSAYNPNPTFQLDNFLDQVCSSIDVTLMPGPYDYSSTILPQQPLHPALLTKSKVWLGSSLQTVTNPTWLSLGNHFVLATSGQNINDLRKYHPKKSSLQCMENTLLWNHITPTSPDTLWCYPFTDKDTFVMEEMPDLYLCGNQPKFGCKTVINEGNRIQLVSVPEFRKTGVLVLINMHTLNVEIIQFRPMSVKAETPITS

B1: Cdc27 (fission yeast DNA polymerase delta C-subunit) (natural protein, Schizosaccharomyces pombe, UniProt P30261 1-372, looked up)
chain: MEEWRNFLDIKVINESSLVTVDNLSLQLDISSEKAQEYLNMFYQGNDFLYPIYLIHGQPIDDEINLEIDEESQPISNFPVLQYILCDKSSLQEKQSRLKSGYKTVIFALSSAPLSDFDELLPAVYEIREKDVLYKKEDADKYGFIFNENSVPRVLKKAPSTHSPQLSVPSKTSTIDKTDTRSTEKTKGKDIFSNARNQKGNSSRKNKKAPLENHKEKEPLLPKEEKLSEQAKRERDDLKNIMQLEDESVSTTSVHDSEDDNLDSNNFQLEIGTEAKSAAPDEPQEIIKSVSGGKRRGKRKVKKYATTKDEEGFLVTKEEEVWESFSEDENISTGTSNVVRNKPTTVNIATKKKNTAQSKPQQKSIMSFFGKK
notes: DNA polymerase delta C-subunit Cdc27, S. pombe; prey plasmid pGAD2F-Cdc27; also called pGAD2F-Cdc27; source: yeast two-hybrid fusion, in S. cerevisiae CTY10-5d
Cdc1-E9
  two-hybrid beta-galactosidase activity, % of wild-type Cdc1: < 1%
Cdc1-A4
  two-hybrid beta-galactosidase activity, % of wild-type Cdc1: 31%
Cdc1-J22
  two-hybrid beta-galactosidase activity, % of wild-type Cdc1: 7%
Cdc1-J3
  two-hybrid beta-galactosidase activity, % of wild-type Cdc1: < 1%
